Test system: Escherichia coli TOP10
Experiment: shrunken log2 fold change of peptide-encoding DNA abundance (4.5 h post-induction vs induction); higher = less antimicrobial activity (less host growth inhibition)
Settings: time post-induction: 4.5 h; library: site-saturation at positions 5, 18, 19, 20
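Also: peptides expressed intracellularly from a pBAD plasmid library in pooled LB shake-flask culture, induced with 0.3% L-arabinose, DNA abundance read by NGS, three biological replicates, DESeq2 with apeglm shrinkage.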

Sequence	shrunken log2 fold change
RRIRLRPPRLPRPRPRPNNDPRP	-0.763
RRIRLRPPRLPRPRPRPNNNPRP	-0.673
RRIRLRPPRLPRPRPRPNNYPRP	-0.577
RRIRLRPPRLPRPRPRPNPTPRP	-0.149
RRIRLRPPRLPRPRPRPNPVPRP	0.0363
RRIRLRPPRLPRPRPRPNPWPRP	0.0455
RRIRLRPPRLPRPRPRPNPYPRP	-0.0545
RRIRLRPPRLPRPRPRPNRDPRP	-0.124
RRIRLRPPRLPRPRPRPNREPRP	-0.118
RRIRLRPPRLPRPRPRPNSFPRP	-0.191
RRIRLRPPRLPRPRPRPNSGPRP	-0.095
RRIRLRPPRLPRPRPRPNSSPRP	-0.11
RRIRLRPPRLPRPRPRPNTCPRP	-0.823
RRIRLRPPRLPRPRPRPNTHPRP	-0.473
RRIRLRPPRLPRPRPRPNVIPRP	-0.106
RRIRLRPPRLPRPRPRPNWNPRP	-0.386
RRIRLRPPRLPRPRPRPNYFPRP	-0.121
RRIRLRPPRLPRPRPRPNYGPRP	-0.0135
RRIRLRPPRLPRPRPRPPAYPRP	0.0545
RRIRLRPPRLPRPRPRPPCWPRP	0.16
RRIRLRPPRLPRPRPRPPFVPRP	0.00109
RRIRLRPPRLPRPRPRPPGHPRP	0.224
RRIRLRPPRLPRPRPRPPHVPRP	0.989
RRIRLRPPRLPRPRPRPPIHPRP	-0.117
RRIRLRPPRLPRPRPRPPKWPRP	0.532

Sequence	shrunken log2 fold change
RRIRLRPPRLPRPRPRPPLQPRP	0.67
RRIRLRPPRLPRPRPRPPMEPRP	0.347
RRIRLRPPRLPRPRPRPPNGPRP	-0.0536
RRIRLRPPRLPRPRPRPPNKPRP	-0.123
RRIRLRPPRLPRPRPRPPNYPRP	-0.23
RRIRLRPPRLPRPRPRPPPSPRP	1.28
RRIRLRPPRLPRPRPRPPPVPRP	0.98
RRIRLRPPRLPRPRPRPPQWPRP	0.322
RRIRLRPPRLPRPRPRPPRKPRP	0.659
RRIRLRPPRLPRPRPRPPRNPRP	0.356
RRIRLRPPRLPRPRPRPPRQPRP	0.688
RRIRLRPPRLPRPRPRPPSYPRP	0.119
RRIRLRPPRLPRPRPRPPWGPRP	0.203
RRIRLRPPRLPRPRPRPPWPPRP	0.578
RRIRLRPPRLPRPRPRPPWWPRP	0.695
RRIRLRPPRLPRPRPRPPYMPRP	-0.205
RRIRLRPPRLPRPRPRPPYPPRP	-0.0316
RRIRLRPPRLPRPRPRPQAFPRP	0.0474
RRIRLRPPRLPRPRPRPQAWPRP	0.126
RRIRLRPPRLPRPRPRPQDEPRP	0.119
RRIRLRPPRLPRPRPRPQDLPRP	-0.0513
RRIRLRPPRLPRPRPRPQDNPRP	-0.428
RRIRLRPPRLPRPRPRPQECPRP	-0.00874
RRIRLRPPRLPRPRPRPQEIPRP	-0.0701
RRIRLRPPRLPRPRPRPQERPRP	-0.839

Sequence	shrunken log2 fold change
RRIRLRPPRLPRPRPRPQFPPRP	0.172
RRIRLRPPRLPRPRPRPQFSPRP	-0.907
RRIRLRPPRLPRPRPRPQFVPRP	-0.0035
RRIRLRPPRLPRPRPRPQGAPRP	-0.145
RRIRLRPPRLPRPRPRPQGIPRP	-0.0354
RRIRLRPPRLPRPRPRPQISPRP	-0.272
RRIRLRPPRLPRPRPRPQIVPRP	-0.0529
RRIRLRPPRLPRPRPRPQIWPRP	-0.166
RRIRLRPPRLPRPRPRPQLCPRP	0.118
RRIRLRPPRLPRPRPRPQMGPRP	-0.0175
RRIRLRPPRLPRPRPRPQMLPRP	0.0385
RRIRLRPPRLPRPRPRPQMYPRP	-0.115
RRIRLRPPRLPRPRPRPQNCPRP	0.0117
RRIRLRPPRLPRPRPRPQREPRP	0.144
RRIRLRPPRLPRPRPRPQVRPRP	0.0635
RRIRLRPPRLPRPRPRPQWNPRP	-0.289
RRIRLRPPRLPRPRPRPQWTPRP	0.107
RRIRLRPPRLPRPRPRPQYTPRP	-0.909
RRIRLRPPRLPRPRPRPRAIPRP	0.0282
RRIRLRPPRLPRPRPRPRAMPRP	0.373
RRIRLRPPRLPRPRPRPRCSPRP	0.0191
RRIRLRPPRLPRPRPRPRDFPRP	-0.206
RRIRLRPPRLPRPRPRPRDGPRP	1.06
RRIRLRPPRLPRPRPRPREWPRP	-0.0315
RRIRLRPPRLPRPRPRPRFGPRP	0.145

Sequence	shrunken log2 fold change
RRIRLRPPRLPRPRPRPRHMPRP	-0.287
RRIRLRPPRLPRPRPRPRMRPRP	0.667
RRIRLRPPRLPRPRPRPRNMPRP	-0.0899
RRIRLRPPRLPRPRPRPRNSPRP	-0.051
RRIRLRPPRLPRPRPRPRPNPRP	0.348
RRIRLRPPRLPRPRPRPRPQPRP	0.398
RRIRLRPPRLPRPRPRPRRAPRP	0.585
RRIRLRPPRLPRPRPRPRTAPRP	0.482
RRIRLRPPRLPRPRPRPRVGPRP	0.295
RRIRLRPPRLPRPRPRPRVKPRP	-0.0432
RRIRLRPPRLPRPRPRPRVQPRP	-0.143
RRIRLRPPRLPRPRPRPRVSPRP	-0.0787
RRIRLRPPRLPRPRPRPRVYPRP	0.224
RRIRLRPPRLPRPRPRPSAEPRP	0.342
RRIRLRPPRLPRPRPRPSAKPRP	-0.0639
RRIRLRPPRLPRPRPRPSAYPRP	0.0888
RRIRLRPPRLPRPRPRPSCAPRP	-0.00959
RRIRLRPPRLPRPRPRPSCIPRP	-0.461
RRIRLRPPRLPRPRPRPSDVPRP	-0.533
RRIRLRPPRLPRPRPRPSDYPRP	-0.106
RRIRLRPPRLPRPRPRPSFNPRP	-0.529
RRIRLRPPRLPRPRPRPSGVPRP	-0.0863
RRIRLRPPRLPRPRPRPSHEPRP	0.031
RRIRLRPPRLPRPRPRPSHLPRP	-0.491
RRIRLRPPRLPRPRPRPSHRPRP	-0.0457

Sequence	shrunken log2 fold change
RRIRLRPPRLPRPRPRPSINPRP	-0.32
RRIRLRPPRLPRPRPRPSKAPRP	-0.0252
RRIRLRPPRLPRPRPRPSKNPRP	-0.296
RRIRLRPPRLPRPRPRPSKYPRP	-0.578
RRIRLRPPRLPRPRPRPSLDPRP	-0.142
RRIRLRPPRLPRPRPRPSMDPRP	-0.327
RRIRLRPPRLPRPRPRPSMRPRP	0.421
RRIRLRPPRLPRPRPRPSNPPRP	-0.86
RRIRLRPPRLPRPRPRPSPAPRP	0.254
RRIRLRPPRLPRPRPRPSPQPRP	0.362
RRIRLRPPRLPRPRPRPSPSPRP	-0.218
RRIRLRPPRLPRPRPRPSRHPRP	-0.415
RRIRLRPPRLPRPRPRPSSEPRP	0.0265
RRIRLRPPRLPRPRPRPSSFPRP	-0.0574
RRIRLRPPRLPRPRPRPSSTPRP	-0.278
RRIRLRPPRLPRPRPRPSTKPRP	-0.0833
RRIRLRPPRLPRPRPRPSVTPRP	-0.267
RRIRLRPPRLPRPRPRPTCIPRP	-0.123
RRIRLRPPRLPRPRPRPTEAPRP	-0.00104
RRIRLRPPRLPRPRPRPTELPRP	-0.118
RRIRLRPPRLPRPRPRPTESPRP	0.0515
RRIRLRPPRLPRPRPRPTFMPRP	-0.305
RRIRLRPPRLPRPRPRPTGFPRP	-0.158
RRIRLRPPRLPRPRPRPTGIPRP	-0.182
RRIRLRPPRLPRPRPRPTGKPRP	-0.202

Sequence	shrunken log2 fold change
RRIRLRPPRLPRPRPRPTHNPRP	-0.0209
RRIRLRPPRLPRPRPRPTKVPRP	-0.0842
RRIRLRPPRLPRPRPRPTLCPRP	0.163
RRIRLRPPRLPRPRPRPTLHPRP	0.18
RRIRLRPPRLPRPRPRPTLKPRP	-0.307
RRIRLRPPRLPRPRPRPTLSPRP	-0.0659
RRIRLRPPRLPRPRPRPTMGPRP	0.147
RRIRLRPPRLPRPRPRPTMMPRP	-0.282
RRIRLRPPRLPRPRPRPTNCPRP	-0.0927
RRIRLRPPRLPRPRPRPTNEPRP	-0.127
RRIRLRPPRLPRPRPRPTPGPRP	0.557
RRIRLRPPRLPRPRPRPTPPPRP	0.648
RRIRLRPPRLPRPRPRPTRKPRP	0.374
RRIRLRPPRLPRPRPRPTRMPRP	0.513
RRIRLRPPRLPRPRPRPTVWPRP	0.387
RRIRLRPPRLPRPRPRPTWEPRP	0.0313
RRIRLRPPRLPRPRPRPTYLPRP	-0.0138
RRIRLRPPRLPRPRPRPVAQPRP	0.391
RRIRLRPPRLPRPRPRPVASPRP	-0.0255
RRIRLRPPRLPRPRPRPVDTPRP	-0.142
RRIRLRPPRLPRPRPRPVESPRP	-0.0112
RRIRLRPPRLPRPRPRPVFCPRP	0.14
RRIRLRPPRLPRPRPRPVFQPRP	0.042
RRIRLRPPRLPRPRPRPVFTPRP	-0.135
RRIRLRPPRLPRPRPRPVHIPRP	-0.182

From the supplement of paper PMC9112550, “Optimization of the antimicrobial peptide Bac7 by deep mutational scanning” (BMC Biology, 2022)
